How the values were obtained:
JNK = assay: Activation of JNK by cisplatin in 293T cell lines (Western blot); assay type: cell-based, human; settings: 293T cells stably expressing GSE 24.2 vs pLNCX; cisplatin 6 hours
Description: FIG. 2.—Cell viability and activation of the JNK and p38 death pathways in 293T cell lines: pLNCX and 24.2, treated with cisplatin. A) Cell viability. After seeding the 293T cells: expressing the empty vector (pLNCX) and GSE 24.2 (24.2) in 24-well plates, they were incubated with concentrations between 0-100 μg/ml of cisplatin. The cell viability was measured by means of the crystal violet technique after 72 hours of exposure to the drug. The data represent the mean of two experiments performed in quadruplicate. B) Activation kinetics. Subsequently, the activation of JNK and p38 was studied using antibodies that specifically recognise the active forms. As a load control, the levels of JNK-1 were detected.
The pLNCX24-2 plasmid containing GSE of the same name was transfected in a stable manner in the 293T cells and, as a control, the pLNCX empty vector was transfected. After verifying, by means of PCR, that the 24.2 cell line contained this insert (data not shown), the response to cisplatin was studied, creating a viability curve with this drug. […] JNK and p38 are MAPKs that are activated in response to genotoxic agents (Sanchez-Perez et al., 1998).
Western Blot and antibodies. 20 μg of protein were separated in SDS-polyacrylamide gels; subsequently, they were transferred to Immobilon-P membranes (Millipore) by humid transfer. […]

hTERT = assay: RT-PCR of hTERT in cells of patients with dyskeratosis congenita; assay type: cell-based, human; settings: RT-PCR 24 hours after transfection
Description: (§1) FIG. 10.—Telomerase activity and expression levels of hTERT and hTR in the cells of patients with dyskeratosis congenita and in VA13 cells transiently transfected with the 24.2 plasmid or the pLNCX empty vector. A) Telomerase activity measured by means of the TRAP assay in the cells of patients with dyskeratosis congenita (DC-1, DC-2 and DC-3) and in the carrier parent (DC-C) following electroporation of 45 μg of the pLNCX empty plasmid (−) or the pLNCX 24.2 vector (+) by 15 million cells. B) RT-PCR of the RNA from cells of one of the patients with dyskeratosis congenita, DC3 transfected with the empty vector and DC3 transfected with the 24.2 plasmid, using oligos specific for hTERT and hTR. As a starting RNA control, oligos for the amplification of GAPDH were used. C) Telomerase activity in VA13 cells. The cells were transiently transfected with 16 μg of the control pLNCX empty vector, expressing DKC or the GSE 24.2 peptide per million cells. 24 hours later, the telomerase activity was analysed as described above, using dilutions of the protein extracts from each transfection. D) The expression levels of hTERT and hTR in VA13 cells transfected with 16 μg of the different construct per million cells. RNA levels were detected as described above. GAPDH was used as a control. […] After 24 h of transfection, the luciferase activity was analyzed as described above. […]

hTR = assay: RT-PCR of hTR in VA13 cells; assay type: cell-based; settings: transient transfection
Description: as §1

B1: GSE 24.2: 165-pb cDNA fragment (nucleotides 268 to 433) of human dyskerin, SEQ ID NO1, encoding peptide SEQ ID NO2, expressed from pLNCX plasmid (nucleic acid, listed as Homo sapiens)
DNA: GGTTTCATTAATCTTGACAAGCCCTCTAACCCCTCTTCCCATGAGGTGGTAGCCTGGATTCGACGGATACTTCGGGTGGAGAAGACAGGGCACAGTGGTACTCTGGATCCCAAGGTGACTGGTTGTTTAATCGTGTGCATAGAACGAGCCACTCGCTTGGTGAAG
modifications: expressed from pLNCX plasmid; CDS (1)..(165) Sequence GSE 24.2
dose of cisplatin required to activate JNK (JNK): a greater dose of cisplatin is required to activate both kinases | hTERT expression levels in dyskeratosis congenita cells (hTERT): an increase in the expression levels was observed | expression of hTR RNA in VA13 cells (hTR): capable of recovering
